Test [1] has as its target TASK3 (UniProt Q9NPC2). The experiment in a line: fluorescence polarisation; fluorescence anisotropy; 14-3-3 titrated in the presence of 10 nM labelled TASK3; KD fitted here with a one-to-one equilibrium model; data (Dataset S1) from earlier work.
For test [2], the target named is TASK3 (UniProt Q9NPC2). The experiment in a line: fluorescence polarisation; 2D fluorescence anisotropy titrations of 14-3-3 at varying concentrations of fusicoccin-A, 10 nM labelled TASK3; fitted here with a ternary equilibrium model, KD,I fixed at 4.05 μM; data (Dataset S2) published before. (Polarisation of emitted light reports the rotation of a fluorescent probe.)

For orientation: Kd means the constant that tells how readily two partners part at equilibrium.

UniProt Q9NPC2, sequence (Q9NPC2 whole entry): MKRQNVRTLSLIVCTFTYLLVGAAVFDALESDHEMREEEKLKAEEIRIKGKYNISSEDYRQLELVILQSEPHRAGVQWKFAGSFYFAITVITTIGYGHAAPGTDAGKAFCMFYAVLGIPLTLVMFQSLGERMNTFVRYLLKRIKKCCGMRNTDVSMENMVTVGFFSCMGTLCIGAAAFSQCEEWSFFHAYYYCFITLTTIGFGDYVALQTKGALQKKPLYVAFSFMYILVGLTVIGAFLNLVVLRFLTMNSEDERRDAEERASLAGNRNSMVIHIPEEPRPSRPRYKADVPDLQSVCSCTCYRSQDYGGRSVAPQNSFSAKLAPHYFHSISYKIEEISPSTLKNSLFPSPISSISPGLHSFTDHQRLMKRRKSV

Regarding “14-3-3 protein (from UniProt P31947 1-248) (natural protein)”, the Kd in the test with TASK3 [1] was determined as 4.05 µM. This substance also gave a cooperativity factor α with fusicoccin-A with TASK3 [2] of 1340.

These data come from PMC10074561.
